In patent US20110312897:

System: C-terminally 6xHIS tagged, full-length recombinant histone H3

Row | Substance | H3 cleavage assay with pre-activated enzyme, immunoblot with HIS and H3.cs1 antibodies
1 | recombinant Cathepsin B (R&D Systems Cat No. BAF965) | Cathepsin B cleaves rH3 with a distinct pattern from Cathepsins K or L and does not significantly produce the H3.cs1 epitope
2 | recombinant Cathepsin K (Calbiochem Cat. No. 342001) | Cathepsin K produces a similar pattern to Cathepsin L under these assay conditions
